Earlier results on one substance are cited in article PMC7652413.

This series has as its target SARS-CoV-2 spike protein RBD (Severe acute respiratory syndrome coronavirus 2) (UniProt P0DTC2). The experiment in a line: SPR. (SPR reads the build-up and loss of mass on a sensor chip optically.)

One may read the Kd as the constant that tells how readily two partners part at equilibrium. Consider CD147 (basigin) (from UniProt P35613), for which the dissociation constant (Kd) was 185 nM.
